Biological target: human GLP-2 Receptor (human) (UniProt O95838)
Chain of UniProt O95838 (O95838 whole entry): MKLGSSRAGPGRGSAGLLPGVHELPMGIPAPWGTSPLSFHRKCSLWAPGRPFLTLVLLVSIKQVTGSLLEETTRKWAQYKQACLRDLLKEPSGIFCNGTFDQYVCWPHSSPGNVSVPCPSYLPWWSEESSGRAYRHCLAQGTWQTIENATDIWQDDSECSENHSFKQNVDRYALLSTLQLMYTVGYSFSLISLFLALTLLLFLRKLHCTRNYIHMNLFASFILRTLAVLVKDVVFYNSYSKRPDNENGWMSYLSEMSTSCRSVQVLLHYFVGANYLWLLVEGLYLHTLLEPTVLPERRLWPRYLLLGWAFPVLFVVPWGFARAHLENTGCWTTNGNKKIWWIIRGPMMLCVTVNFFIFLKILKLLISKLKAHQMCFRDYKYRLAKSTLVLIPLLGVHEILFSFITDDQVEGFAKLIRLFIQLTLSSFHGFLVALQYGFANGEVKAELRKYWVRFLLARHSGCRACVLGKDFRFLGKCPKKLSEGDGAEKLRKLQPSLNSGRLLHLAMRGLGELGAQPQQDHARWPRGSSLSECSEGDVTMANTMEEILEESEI

calcium flux (FLIPR) in a human GLP-2 receptor-expressing Chem-11 cell line, serial dilutions, EC50 of activation: 380 nM
B1: GLP2-2G-XTEN fusion protein (protein)
chain: HGDGSFSDEMNTILDNLAARDFINWLIQTKITDGGSPAGSPTSTEEGTSESATPESGPGTSTEPSEGSAPGSPAGSPTSTEEGTSTEPSEGSAPGTSTEPSEGSAPGTSESATPESGPGSEPATSGSETPGSEPATSGSETPGSPAGSPTSTEEGTSESATPESGPGTSTEPSEGSAPGTSTEPSEGSAPGSPAGSPTSTEEGTSTEPSEGSAPGTSTEPSEGSAPGTSESATPESGPGTSTEPSEGSAPGTSESATPESGPGSEPATSGSETPGTSTEPSEGSAPGTSTEPSEGSAPGTSESATPESGPGTSESATPESGPGSPAGSPTSTEEGTSESATPESGPGSEPATSGSETPGTSESATPESGPGTSTEPSEGSAPGTSTEPSEGSAPGTSTEPSEGSAPGTSTEPSEGSAPGTSTEPSEGSAPGTSTEPSEGSAPGSPAGSPTSTEEGTSTEPSEGSAPGTSESATPESGPGSEPATSGSETPGTSESATPESGPGSEPATSGSETPGTSESATPESGPGTSTEPSEGSAPGTSESATPESGPGSPAGSPTSTEEGSPAGSPTSTEEGSPAGSPTSTEEGTSESATPESGPGTSTEPSEGSAPGTSESATPESGPGSEPATSGSETPGTSESATPESGPGSEPATSGSETPGTSESATPESGPGTSTEPSEGSAPGSPAGSPTSTEEGTSESATPESGPGSEPATSGSETPGTSESATPESGPGSPAGSPTSTEEGSPAGSPTSTEEGTSTEPSEGSAPGTSESATPESGPGTSESATPESGPGTSESATPESGPGSEPATSGSETPGSEPATSGSETPGSPAGSPTSTEEGTSTEPSEGSAPGTSTEPSEGSAPGSEPATSGSETPGTSESATPESGPGTSTEPSEGSAPG

Reference: paper PMC3506575
